Assay results as given in paper PMC2440032 (2008).

Target: porcine stomach mucin (porcine)
Test: SPR

## YASPKCFRYPNGVLACT [odorranalectin]
  Kd: 1910 nM
